Reference: publication PMC8632923

Experiments:
Conditions in all cases: reference: wild type; sites Y38
Drp1 [1] = target: Drp1 (UniProt O00429); experiment: co-IP, immunoblot
Drp1 [2] = target: Drp1 (UniProt O00429); experiment: anti-Flag IP of Fis1-Flag, Drp1 blot
Drp1 [3] = target: Drp1 (UniProt O00429); experiment: Flag-bead Fis1 pull-down of recombinant Drp1

Measured: binding against the reference

Fis1 (from UniProt Q9Y3D6) Y38F
weaker: Drp1 [1] | Drp1 [2] | Drp1 [3]
